Experiment [1] concerns the target T1, Fc tagged human CD137 (R&D Systems, cat. 838-4B-100) (human, UniProt Q07011 24-186).
T1 construct: Bought Fc chimera; also called CD137 Fc chimera; human CD137 (tagged with Fc); not shown: Fc tag of the bought chimera
The experiment in a line: SPR (Biacore T200), CD137-Fc captured by anti-human Fc, molecule as analyte 0.18-45 nM. On the procedure: (§1) Affinity to PDL1 was determined by SPR measurements using a Biacore T200 device (GE Healthcare). In this experiment, Fc tagged PDL1 from different species was captured using the Human Antibody Capture kit from GE Healthcare (cat. BR-1008-39). After each analyte injection cycle, the anti-human Fc-specific IgG was regenerated and new antigen was captured. For all formats, the multispecific molecules were injected as analyte using a dose response multi-cycle kinetic assay with concentrations of the analyte ranging from 0.18 to 45 nM (two-fold dilutions steps) diluted in running buffer. Association and dissociation time were set to 300 s and 720 s, respectively. The apparent dissociation (kd) and association (kₐ) rate constants and the apparent dissociation equilibrium constant (KD) were calculated using one-to-one Langmuir binding model. Affinity to CD137 of the different species was determined using the identical setup as for PDL1 with the exception that CD137-Fc chimeric proteins from different species were captured by the immobilized antibody.

A further experiment concerns the target T2, Fc tagged human PD-L1 (human, UniProt Q9NZQ7 19-238, limits assumed).
T2 construct: not shown: Fc tag
The experiment in a line: SPR (Biacore T200), Fc tagged PDL1 captured by anti-human Fc, molecule as analyte 0.18-45 nM. On the procedure:
as §1
In general terms: SPR reads the build-up and loss of mass on a sensor chip optically.

The target in experiment [2] is T1, Fc tagged human CD137 (R&D Systems, …). The experiment in a line: SPR (Biacore T200), Fc tagged human CD137 captured by anti-human Fc, scFv as analyte. On the procedure:
In this experiment, Fc tagged human CD137 (R&D Systems, cat. 838-4B-100) was captured using the Human Antibody Capture kit from GE healthcare (cat. BR-1008-39). After each analyte injection cycle, the anti-human Fc-specific IgG was regenerated and new antigen was captured. The scFvs were injected as analyte using a dose response multi-cycle kinetic assay over the captured CD137 with concentrations of the analyte ranging from 0.19 to 45 nM (three-fold dilutions steps) diluted in running buffer. Association and dissociation time were set to 300 s and 720 s, respectively. The obtained sensorgrams were fitted using the 1:1 binding model.

The target of experiment [3] is CD137 (form used for the alanine mutants of PRO1359 not stated) (Homo sapiens (Human), UniProt Q07011 24-186, limits assumed). The experiment in a line: assay not described.
Experiment [4] deals with human CD137 expressed on Jurkat cells (human, UniProt Q07011 24-255). The experiment in a line: cell-based or functional assay.
Another experiment addresses T3, human serum albumin (human, UniProt P02768 25-609).
T3 construct: Amine-coupled to a CM5 chip; also called human SA; HSA
The experiment in a line: SPR (Biacore T200), serum albumin amine-coupled to CM5 chip, pH 5.5. On the procedure:
Affinity of molecules to serum albumin (SA) of the different species was determined by SPR measurements using a Biacore T200 device (GE Healthcare). SA was directly coupled to a CM5 sensor chip (GE Healthcare) using amine coupling chemistry. […] The assay was run in a 1×PBS-Tween buffer at pH 5.5.

Where a chain is given by its changes, count along the chain named. Names and notes keep the numbering of the source. Some results are limits rather than exact numbers.

B1: PRO1186 (other)
chain: DIQMTQSPSSLSASVGDRVTITCQASQSIGTYLAWYQQKPGKAPKLLIYRAFILASGVPSRFSGSGSGTDFTLTISSLQPEDFATYYCQSNFYSDSTTIGPNAFGTGTKVTVLGGGGGSQVQLQESGPGLVKPSETLSLTCKVSGFSFSNSYWICWIRQPPGKGLEWIGCTFVGSSDSTYYANWAKGRVTISVDSSKNQFSLKLSSVTAADTAVYYCARHPSDAVYGYANNLWGQGTLVTVSSGGGGSGGGGSGGGGSGGGGSDIQMTQSPSSLSASVGDRVTITCQASQSINNVLAWYQQKPGKAPKLLIYRASTLASGVPSRFSGSGSGTDFTLTISSLQPEDFATYYCQSSYGNYGDFGTGTKVTVLGGGGGSQVQLQESGPGLVKPSETLSLTCKVSGFSFNSDYWIYWIRQPPGKGLEWIGSIYGGSSGNTQYASWAQGRVTISVDSSKNQFSLKLSSVTAADTAVYYCARGYVDYGGATDLWGQGTLVTVSSGGGGSGGGGSVVMTQSPSSLSASVGDRVTITCQASQIISSRSAWYQQKPGQPPKLLIYQASKLASGVPSRFSGSGSGTDFTLTISSLQPEDFATYYCQCTYIDSNFGAFGGGTKLTVLGGGGGSGGGGSGGGGSGGGGSEVQLVESGGGLVQPGGSLRLSCAASGFSFSSSYWICWVRQAPGKGLEWVGCVFTGDGTTYYASWAKGRFTISRDNSKNTVYLQMNSLRAEDTATYFCARPVSVYYYGMDLWGQGTLVTVSS
notes: Trispecific scDb-scFv with a different anti-CD137 domain; also called PR01186
As to B1, in experiment [1], the kon – broadly, a measure of how fast the partners come together – turned out to be 190000 M⁻¹ s⁻¹.

B2: PRO885 (bispecific antibody)
chain: DIQMTQSPSSLSASVGDRVTITCQASQSINDYLAWYQQKPGKAPKLLIYKASTLASGVPSRFSGSGSGTDFTLTISSLQPEDFATYYCQQGYIITDIDNVFGTGTKVTVLGGGGGSQVQLQESGPGLVKPSETLSLTCKVSGFSFSNSYWICWIRQPPGKGLEWIGCTFVGSSDSTYYANWAKGRVTISVDSSKNQFSLKLSSVTAADTAVYYCARHPSDAVYGYANNLWGQGTLVTVSSGGGGSGGGGSGGGGSGGGGSIQMTQSPSSLSASVGDRVTITCQASQSINNVLAWYQQKPGKAPKLLIYRASTLASGVPSRFSGSGSGTDFTLTISSLQPEDFATYYCQSSYGNYGDFGTGTKVTVLGGGGGSQVQLQESGPGLVKPSETLSLTCKVSGFSFSSGYDMCWIRQPPGKGLEWIGCVVAGSVDITYYASWAKGRVTISVDSSKNQFSLKLSSVTAADTAVYYCARKDAYSDAFNLWGQGTLVTVSS
For B2, the dissociation constant (Kd) (usually the constant that tells how readily two partners part at equilibrium) stood at 3.2 nM in experiment [1] and 0.065 nM with Fc tagged human PD-L1.

B3: PRO1704 (38-27-A11 sc07) (scFv)
scFv: DIQMTQSPSSLSASVGDRVTITCQASQSISNRLAWYQQKPGKAPKLLIYSASTLASGVPSRFSGSGSGTDFTLTISSLQPEDFATYYCQSTYYGNDGNAFGCGTKVTVLGGGGGSGGGGSGGGGSGGGGSEVQLVESGGGLVQPGGSLRLSCAASGFSFSANYYPCWVRQAPGKCLEWIGCIYGGSSDITYDANWTKGRFTISRDNSKNTVYLQMNSLRAEDTAVYYCARSAWYSGWGGDLWGQGTLVTVSS
notes: VL-linker-VH, CDR graft with interdomain disulfide (VL-T141C)
Turning to B3, in experiment [2], binding was characterised by a dissociation constant (Kd) of 3.07 nM; the koff – broadly, a measure of how fast the partners let go of each other – was 0.00353 s⁻¹; the on-rate (kon) is 1.15e+06 M⁻¹ s⁻¹.

B4: PRO1359 with TRP 233 mutated to alanine (scFv)
scFv: B3 scFv with C102T, C175G, W233A
For the molecule B4, the “fold reduction of affinity against unmutated PRO1359” value in experiment [3] was more than 1000 fold.

B5: PRO1359 with TYR 191 mutated to alanine (scFv)
scFv: B3 scFv with C102T, C175G, Y191A
Regarding B5, the “fold reduction of affinity against unmutated PRO1359” value in experiment [3] is more than 1000 fold.

B6: PRO1480 (other)
chain: DIQMTQSPASLSASVGDRVTITCQASQSIGTYLAWYQQKPGKPPKLLIYRAFILASGVPSRFSGSGSGTDFTLTISSLQPEDFATYYCQSNFYSDSTTIGPNAFGTGTKVTVLGGGGGSEVQLVESGGGLVQPGGSLRLSCAASGFSFSANYYPCWVRQAPGKGLEWIGCIYGGSSDITYDANWTKGRFTISRDNSKNTVYLQMNSLRAEDTAVYYCARSAWYSGWGGDLWGQGTLVTVSSGGGGSGGGGSGGGGSGGGGSIQMTQSPSSLSASVGDRVTITCQASQSISNRLAWYQQKPGKAPKLLIYSASTLASGVPSRFSGSGSGTDFTLTISSLQPEDFATYYCQSTYYGNDGNAFGTGTKVTVLGGGGGSEVQLVESGGGLVQPGGSLRLSCAASGFSFNSDYWIYWVRQAPGKGLEWIASIYGGSSGNTQYASWAQGRFTISRDNSKNTVYLQMNSLRAEDTAVYFCARGYVDYGGATDLWGQGTLVTVSSGGGGSGGGGSIQMTQSPSSLSASVGDRVTITCQSSESVYSNNQLSWYQQKPGQPPKLLIYDASDLASGVPSRFSGSGSGTDFTLTISSLQPEDFATYYCAGGFSSSSDTAFGGGTKLTVLGGGGGSGGGGSGGGGSGGGGSEVQLVESGGGLVQPGGSLRLSCAASGFSLSSNAMGWVRQAPGKGLEYIGIISVGGFTYYASWAKGRFTISRDNSKNTVYLQMNSLRAEDTATYFCARDRHGGDSSGAFYLWGQGTLVTVSS
notes: Trispecific scDb-scFv; CD137 arm derived from 38-27-A11 sc02; also called PRO1480 (38-27-A11); trispecific anti-PDL1xCD137xHSA scDb-scFv
As to B6, in experiment [4], the “IC50 (ng/ml), activation of NF-kB reporter gene, HCC827 + IFNg, 6 h, with HSA” value came out at 6.44 ng/mL and the “IC50 (ng/ml), activation of NF-kB reporter gene, HCC827 + IFNg, 24 h, with HSA” value came out at 4.67 ng/mL. In the experiment with human serum albumin, this molecule came in with a Kd of 1.03 nM and a koff of 0.000337 s⁻¹. For the same molecule, in the experiment with Fc tagged human PD-L1, the Kd turned out to be 0.015 nM and the off-rate (koff) came to 5.1e-05 s⁻¹.

B7: PRO1481 (other)
chain: B6 chain with V121S, Y216F, Q233P, I262F, M264L, A303P
notes: Trispecific scDb-scFv; CD137 arm derived from 38-27-A11 sc03
On to B7, for which, in experiment [4], the “IC50 (ng/ml), activation of NF-kB reporter gene, HCC827 + IFNg, 6 h, with HSA” value came out at 7.22 ng/mL and the “IC50 (ng/ml), activation of NF-kB reporter gene, HCC827 + IFNg, 24 h, with HSA” value worked out at 5.51 ng/mL. This molecule showed an off-rate constant (koff) with Fc tagged human PD-L1 of 4.3e-05 s⁻¹.
